Primed or numbered codes have the meaning given here. Where no end group is shown, it is not given here. FITC′ = fluorescein isothiocyanate label
T1: PhoEF1A•GTP•PfuPelota complex (P. horikoshii | Pyrococcus furiosus, UniProt O59153 1-428; Q8U150 1-356)
T1 construct: aPelota of Pyrococcus furiosus; Complex of m2 (GTP form) and m3, titrated as a complex in fluorescence polarisation; also called aEF1A•GTP•aPelota; source: E. coli, each protein purified, then complexed with GTP
T1 sequence 1: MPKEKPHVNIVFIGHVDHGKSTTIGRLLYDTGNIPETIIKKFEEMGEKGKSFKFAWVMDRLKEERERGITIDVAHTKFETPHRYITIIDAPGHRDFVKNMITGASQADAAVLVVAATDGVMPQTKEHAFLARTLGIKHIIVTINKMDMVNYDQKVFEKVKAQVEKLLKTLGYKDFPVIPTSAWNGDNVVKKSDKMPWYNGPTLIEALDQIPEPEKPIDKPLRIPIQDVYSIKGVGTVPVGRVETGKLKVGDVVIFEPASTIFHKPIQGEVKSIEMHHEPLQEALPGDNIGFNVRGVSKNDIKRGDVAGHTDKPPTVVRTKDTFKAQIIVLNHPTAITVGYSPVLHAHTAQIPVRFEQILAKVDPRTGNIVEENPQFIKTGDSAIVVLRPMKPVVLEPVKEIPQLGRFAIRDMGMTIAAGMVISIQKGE
T1 sequence 2: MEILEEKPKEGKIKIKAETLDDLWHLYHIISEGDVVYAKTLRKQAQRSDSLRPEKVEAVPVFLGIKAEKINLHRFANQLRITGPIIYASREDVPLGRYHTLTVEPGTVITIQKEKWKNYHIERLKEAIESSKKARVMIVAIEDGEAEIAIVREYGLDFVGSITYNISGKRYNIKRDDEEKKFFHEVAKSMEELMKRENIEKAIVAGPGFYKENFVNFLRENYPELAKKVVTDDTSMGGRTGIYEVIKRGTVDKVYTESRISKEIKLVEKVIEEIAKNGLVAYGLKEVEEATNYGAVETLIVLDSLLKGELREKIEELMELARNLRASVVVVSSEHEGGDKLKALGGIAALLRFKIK

T2: Pyrococcus horikoshii elongation factor aEF1A (PhoEF1A) (P. horikoshii, UniProt O59153 1-428)
T2 construct: elongation factor 1-alpha (aEF1A) of Pyrococcus horikoshii; the nucleotide is named in the assay's format; also called PhoEF1A•GTP; PhoEF1A•GDP
T2 sequence: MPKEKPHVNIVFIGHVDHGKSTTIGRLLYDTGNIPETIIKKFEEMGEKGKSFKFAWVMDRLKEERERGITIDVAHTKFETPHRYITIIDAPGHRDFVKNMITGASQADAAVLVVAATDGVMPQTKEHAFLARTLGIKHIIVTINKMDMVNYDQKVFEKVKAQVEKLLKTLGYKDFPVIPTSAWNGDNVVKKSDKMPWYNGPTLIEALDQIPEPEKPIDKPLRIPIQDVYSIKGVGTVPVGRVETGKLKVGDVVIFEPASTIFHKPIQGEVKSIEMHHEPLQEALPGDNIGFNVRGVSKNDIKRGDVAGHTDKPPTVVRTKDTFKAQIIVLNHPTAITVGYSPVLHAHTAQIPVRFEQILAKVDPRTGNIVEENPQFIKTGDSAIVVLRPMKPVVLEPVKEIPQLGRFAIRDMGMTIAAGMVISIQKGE

T3: Aeropyrum pernix elongation factor aEF1A (ApeEF1A) (Aeropyrum pernix, UniProt Q9YAV0 1-437)
T3 construct: elongation factor 1-alpha (aEF1A) of Aeropyrum pernix; also called ApeEF1A•GTP; wild type ApeEF1A
T3 sequence (looked up): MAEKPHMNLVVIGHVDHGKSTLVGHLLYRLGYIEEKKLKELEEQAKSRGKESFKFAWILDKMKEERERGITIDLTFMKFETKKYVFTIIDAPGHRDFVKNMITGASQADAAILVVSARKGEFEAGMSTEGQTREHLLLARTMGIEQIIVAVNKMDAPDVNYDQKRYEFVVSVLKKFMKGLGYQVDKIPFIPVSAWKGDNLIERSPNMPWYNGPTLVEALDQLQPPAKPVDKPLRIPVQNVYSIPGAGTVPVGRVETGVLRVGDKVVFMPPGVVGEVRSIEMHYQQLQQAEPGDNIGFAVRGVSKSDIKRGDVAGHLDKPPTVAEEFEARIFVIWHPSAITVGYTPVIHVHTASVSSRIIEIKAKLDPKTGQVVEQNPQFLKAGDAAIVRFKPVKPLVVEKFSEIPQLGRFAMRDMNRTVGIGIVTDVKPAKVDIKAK


Experiments:
Conditions in all cases: both partners purified
[1] = biological target: T1, PhoEF1A•GTP•PfuPelota complex; assay: fluorescence polarisation; FITC-labelled peptide (50 nM) with 0-160 µM PhoEF1A•GTP•PfuPelota complex in FP buffer (20 mM HEPES-KOH pH 7.6, 10 mM MgCl2, 150 mM KCl, 0.1 mg/ml BSA), 25 °C; one site specific binding fit
[2] = biological target: T2, Pyrococcus horikoshii elongation factor …; assay: fluorescence polarisation; FITC-labelled PhoP1C14 with increasing PhoEF1A•GDP complex; same assay as for the GTP complex
[3] = biological target: T3, Aeropyrum pernix elongation factor …; assay: crystal structure; ApeP1C17•ApeEF1A•GTP•ApePelota complex, sitting drop vapor diffusion at 20 °C, 3.0 Å
[4] = biological target: T2, Pyrococcus horikoshii elongation factor …; assay: pull-down; MBP-P1 fusion held on amylose resin; EF1A (1,000 pmol), Pelota (1,000 pmol) and equal amounts of MBP-P1 in 100 µl PD buffer (25 mM Tris-HCl pH 8.0, 200 mM NaCl, 10 mM MgCl2, 1 mM GTP), 4 °C, 90 min; eluted with 50 mM maltose; SDS-PAGE, CBB staining
[5] = biological target: T3, Aeropyrum pernix elongation factor …; assay: as above

binding result [3] | binding result [4] | Binder | other results
 |  | {FITC′}-SEEEALAGLSALFG (C-terminal 14 residues of P. horikoshii ribosomal stalk protein aP1 (last residues L106, F107, G108); also called WT; C-terminal peptide; source: synthetic peptide (Hokkaido System Science)) [C-terminal 14-mer peptide of P. horikoshii aP1 (PhoP1C14), FITC-labelled] | Kd [1]: 23.6 µM; Kd [2]: 10.4 µM
binds |  | KKEEEVDLSGLSGMFGF (C-terminal 17 residues of Aeropyrum pernix ribosomal stalk protein aP1 (ends at F111); also called aP1C17; aP1-CTD; source: synthetic peptide (Hokkaido System Science)) [C-terminal 17-mer peptide of A. pernix aP1 (ApeP1C17)] | 
 | binds | Pyrococcus furiosus aPelota (PfuPelota) (natural protein, UniProt Q8U150 1-356, looked up, aPelota of Pyrococcus furiosus) MEILEEKPKEGKIKIKAETLDDLWHLYHIISEGDVVYAKTLRKQAQRSDSLRPEKVEAVPVFLGIKAEKINLHRFANQLRITGPIIYASREDVPLGRYHTLTVEPGTVITIQKEKWKNYHIERLKEAIESSKKARVMIVAIEDGEAEIAIVREYGLDFVGSITYNISGKRYNIKRDDEEKKFFHEVAKSMEELMKRENIEKAIVAGPGFYKENFVNFLRENYPELAKKVVTDDTSMGGRTGIYEVIKRGTVDKVYTESRISKEIKLVEKVIEEIAKNGLVAYGLKEVEEATNYGAVETLIVLDSLLKGELREKIEELMELARNLRASVVVVSSEHEGGDKLKALGGIAALLRFKIK | 
binds |  | Aeropyrum pernix aPelota (ApePelota) (natural protein, A. pernix, UniProt Q9YAZ5 1-356, looked up, aPelota of Aeropyrum pernix) MRVEVLDNKRRIVRLRPESEEDLWLLRITLRPGDVVRIRTSRDVPVGSGRKERVVMTLRIRLDSIEFQPFTGKLRISGIVVEGPDEFGVKGRRHSTAVSIGTWLVVERDKGWSEQELERLASGRARGTAVIAAVDYDEFALAVLAGHGMKILEDTSARLPGKDDPSREQEVEKYVDRAAKRIVEEAARHRSPIAVIAGPGQLKTSVAEKVQRAMPSLKVATVDTSMGGVAGVREALRRESVTRILRELSIVEAEGVLEEFLRRIAKSRDTVAYTPGEVLAVARMGAVDTVLLVDTLLHSPDDAVREAVDEALRLVESMGGRVIIIPGDSPAGERLVSFGGVIALLRYPVPQEARRL | 
 | binds | SEEEALAGLSALFG (domain or fragment, P. horikoshii, C-terminal 14 residues of P. horikoshii ribosomal stalk protein aP1; made by removing residues 61-94 from pMAL-c4x-aP1[61-108]; the 14 residues are identical in both species; Vector pMAL-c4x; also called MBP-PfuP1C14; not shown: MBP, N-terminal, kept) [maltose-binding protein fused to the C-terminal 14 amino acid sequence of PhoP1 (MBP-PhoP1C14)] | 
 |  | EEEVDLSGLSGMFGF (domain or fragment, Vector pMAL-c4x, EcoRI-PstI; not shown: MBP, N-terminal, kept) [N-terminal MBP fused with the C-terminal 15 amino acid residues of A. pernix aP1 (MBP-ApeP1C15)] | binding result [5]: binds
